According to the DeepSol protein solubility set:

Assay: soluble on expression in E. coli; label from the status in PepcDB or PDB records

With “MSLYAAYAGNLDARLMTRRAPHSPLRATGWLNGWRLTFGGEHMGWEGALATLVEDPISQVFVSLYDIAPMDEDSLDRWEGVGLDIYRRTRVRIHTLDGEEGAWTYVLNAYEGGLPSARYLGEIADAAESSGAPHDYVMELRKRPCLEHHHHHH” as the sequence, how does the “soluble on expression in E. coli” value read?
The value was “not soluble”.

Which “soluble on expression in E. coli” value does the source give for “MNTHYVGPVLYTPKENVSEKLLKLFDADQPIIFCYTARFYDNVGESGKAIFDNMIKIADKIDASIIISTGNKKDELLALDIASKELKSGKVSIVDYVPLDMAYEKSDLVIHHGGHGSCLAQFYYGVPSVIIPTHTEREYNARMCEKLHVGKMLPRRELNSANLKNCINDVLNDITYKKSVRDWKEKVSGLEHHHHHH” here?
The value was “not soluble”.

With “MSLNNIMKVVIIGAGPAGVYSALTLSKHAKVTLIEREEKLGGTCVLYGCIPTKSILSQLIISRQASNMSLNTLREYALTSINTISKSLEHLLNSHGIEVIHANGFLRSSMVHASNTSLAADKVLVSTGTRRERLGKVKFTEDLAYTNEDYNKVVIVGGDAGGIELGWMMKKLGKEVHLIDKNDLLLQNIDRTLSEIVTNFLSQIGIKLYLGKKVSKIDETSVTLEDNQKISGDAVFVTFGRKPNIEGFEEIPHEKYIYVDEYLRTQIPNIYAAGDIIGTFTAHEAIYAGIIAAKNMLGEKREFIVEGIPKVIYIYPQIAYVGTTNGNCVTFNTLNLTRTIVERESEGFLKICERDNRVIGAVAFMPYAEDVISLISVLIRYQISLKDTIDLVMPHPSYLEAITEALNMLQSKGEGHHHHHH” as the sequence, how does the “soluble on expression in E. coli” value read?
Its value is “not soluble”.

With “MAFNGAMSVGAQISDAVILAHSPKSCTHIMYQTISSAGRRTLFERGALLPVSLAPNLESTDMGEAEMIFGGMEKLEEKILELKARQPRAIVVVSACPAGIIGDDIGRTRRFSEPGLPVVTLKTDGNLAGDYLQGMLMAYTSLARQVIRLEHHHHHH” as the sequence, how does the “soluble on expression in E. coli” value read?
Its value is “not soluble”.

For “MSLGNPAAMLAAYNTSTQVAPQPQLGPRAGEVQLSSEQQAMIDYVLAGKDVIVDATVGSGKTTAIQRLCSIMGADHDVLYLTYSKLLKVDAQQRVRGAKVQNYHGIVYPHLLKAGIKCGISESIREFNKNFKHISRTFPSYDLLVIDEYQDINEDYAELLRNIKSVNPLMQIVMVGDLEQKVRSDTEGHHHHHH”, which “soluble on expression in E. coli” value is on record?
Its value is “not soluble”.

With “MQVSLNPEWLARNNDEHKIRRNDHRSPFQRDRARILHSAAFRRLQAKTQVHGTSLNDFHRTRLTHSLEAAQIGTGIVAQIKLKQPEFRELLPSDSLIDSLCLAHDIGHPPYGHGGEIALNYMMRDHGGFEGNAQTFRIVTSLEPYTEHHGMNLSRRTLLGLLKYPALLSATRAAIPPPAVAHQRQLKAKDWSPAKGIYDCDLASLDWVLEPLCESDRELLGQMRAEPSSPKEHRKTRFKSLDCSIMELADDIAYGVHDLEDAIVLGMVTRAQWQEAAAAQLAECGDPWFEEHIAELSEMLFSGKHYVRKDAIGGIVNALLTSISVKPVEAPFHNELLAFNAYIEPHMGNALEVLKHFVSQYVIQIPQVQRFEYKGQQLIMDLFEALSADPERLLPQATGEKWRKAQEQDEGMRVICDYIAAMTDAYAQRLHQQLFSAQSHY” as the sequence, how does the “soluble on expression in E. coli” value read?
The value was “not soluble”.

Which “soluble on expression in E. coli” value does the source give for “MIEFSDEDLQKPVRIVIEKIRPYLLKDGGNIEVLGVKSMKIYVALEGACKTCSSSKITLKNVIERQLKMDIHPNLEVVCLENAKEFDKL” here?
Its value is “not soluble”.

With “MDPSLLRERELFKKRALSTPVVEKRSASSESSSSSSKKKKTKVEHGGSSGSKQNSDHSNGSFNLKALSGSSGYKFGVLAKIVNYMKTRHQRGDTHPLTLDEILDETQHLDIGLKQKQWLMTEALVNNPKIEVIDGKYAFKPKYNVRDKKALLRLLDQHDQRGLGGILLEDIEEALPNSQKAVKALGDQILFVNRPDKKKILFFNDKSCQFSVDEEFQKLWRSVTVDSMDEEKIEEYLKRQGISSMQESGPKKVAPIQRRKKPASQKKRRFKTHNEHLAGVLKDYSDITSSK” as the sequence, how does the “soluble on expression in E. coli” value read?
The value was “not soluble”.

Which “soluble on expression in E. coli” value does the source give for “GSVASVHASISGSSASSTSSTPEVKPLKSLLGDSAPTLHLNKGMAILFAVVARGTTILAKHAWCGGNFLEVTEQILAKIPSENNKLTYSHGNYLFHYICQDRIVYLCITDDDFERSRAFSFLNEVKKRFQTTYGSRAQTALPYAMNSEFSSVLAAQLKHHSENHHHHHH” here?
Its value is “soluble”.

For “MIDTTVFQDKTAVYYTLGCKLNFSETSTIGKILREAGVRTARKGEKADLCIVNTCSVTEMADKKCRQAIHRLVKQHPGAFVVVTGCYAQLKPGDVAKIEGVDVVLGAEQKKDLLQYLGDLHKHEGGEAYTTATKDIRSFAPSCSRGDRTRFFLKVQDGCDYFCSYCTIPFARGRSRNGTIASLVEQARQAAAEGGKEIVLTGVNIGDFGKSTGETFFDLVKALDRVEGIERYRISSIEPNLLTDEIIEYVSRSRSFMPHFHIPLQSGSDEVLQLMRRRYGTELFASKIAKIKEVMPDVFIGVDVIVGTRGETAGYFEKAYEFIHGLDVTQLHVFSYSERPGTQALKIDHVVTPEEKHQRSQRLLALSDEKTKAFYARYIGQTMPVLMEKPKAGALMHGFTANYIRVEVESDAALDNKVVNVLLGDFNEEGTALKGTITQLEHHHHHH”, which “soluble on expression in E. coli” value is on record?
Its value is “not soluble”.

Which “soluble on expression in E. coli” value does the source give for “GMILKTNLFGHTYQFKSITDVLAKANEEKSGDRLAGVAAESAEERVAAKVVLSKMTLGDLRNNPVVPYETDEVTRIIQDQVNDRIHDSIKNWTVEELREWILDHKTTDADIKRVARGLTSEIIAAVTKLMSNLDLIYGAKKIRVIAHANTTIGLPGTFSARLQPNHPTDDPDGILASLMEGLTYGIGDAVIGLNPVDDSTDSVVRLLNKFEEFRSKWDVPTQTCVLAHVKTQMEAMRRGAPTGLVFQSIAGSEKGNTAFGFDGATIEEARQLALQSGAATGPNVMYFETGQGSELSSDAHFGVDQVTMEARCYGFAKKFDPFLVNTVVGFIGPEYLYDSKQVIRAGLEDHFMGKLTGISMGCDVCYTNHMKADQNDVENLSVLLTAAGCNFIMGIPHGDDVMLNYQTTGYHETATLRELFGLKPIKEFDQWMEKMGFSENGKLTSRAGDASIFLK” here?
Its value is “soluble”.

Which “soluble on expression in E. coli” value does the source give for “MAHHHHHHMLEGPNAEEAKKAILECDGIFVPGGFGKRGVDGKCAAVALARHHNIPYFGVCLGMQVALIQVCREELGWKDANSEEFDPSSTHQIVRIMDCDRHSMGANMHLGARNVHLVEKNSIMSTIYSGADFVVERHRHRYEVNTTYLGQLRGAGVLISGVSDPTFGPHTRVEAIEIPSLRFFLAVQFHPEFVSSPMDPSPPYLAFMAAASKKEYKWPESCAARRVKTL” here?
The value was “not soluble”.

Which “soluble on expression in E. coli” value does the source give for “GPGSMINLPDMWTAEQRRQHVAEMYRNKGLICPDYFLKNECPRSSSCSYIHIRNGETRKVPLSVCHFYAKRACLRDKCVFFHGTQAQLDQLHAMGAQTYRPQDYMAFAIPPPELLGTDQNVAPPVVTMPMPVPAPLVNNTMPISKPATNSPLLLLPIDASAATPFSMYWSSSPCQHRSPLSPAPIPGLAEPRPPAVSHPYTVFSFFQ” here?
Its value is “not soluble”.

With “MGGFGVGKTTLVRSVSEIRPLNTEEVMTQAGVGVDETGGVTSKTTTTVAFDFGRISLNDRMVLYLFGAPGQERFWFLWDRLFSGTLGAVVLVDTRRMDDSWYAIDRLEHHRTPFVVAVNRFDDDTARHSLDEIRLALALPDHVPLIDCDARVRTSGKHVLVTLVDHLYQLALAQESASLEHHHHHH” as the sequence, how does the “soluble on expression in E. coli” value read?
The value was “not soluble”.

For “MGSDKIHHHHHHMKILLLNTSDARGGAAVAAMRLMETLQEAGAEVRMLVLNRNTTNPDIMALHSGRCGKTADKYRFLAERLHIYMCNGRDRSRLFHVSTALIGYDVSCHPWVRWADVIHLHWINQGFLSLRGLERLTRCGKSVVWTMHDMWPVTAICHHARECLRYRTECGACPQISSQKEKDLARLVWNRKSRVISLLRPTLIGCSHWLADLARQSALTDGLRIESIPNPIDTNLFAPGSRSDARRIMDLPTDRILLLFGAVQADDPRKGIYELSQAMKRLRERQPDLSKRIALVVFGSLRDEVRSLFPNYKLISIGYIREPSRMAELYRAADLFVIPSLEENLPNTIMEALSVGTPCVAFRVGGIPEMIVSGSTGYLAAFRDPSDLAEGITKTIALQETSPEAVASACRSFVLRHYSREVVSSRMLQLYRELL”, which “soluble on expression in E. coli” value is on record?
The value was “not soluble”.

With “MRKSLTDIYEARVDAEELRADPAQHAVLEDLEGIRQWLEAHPERKRGLFGLFAAKEEPPKGLYLWGGVGRGKSMIMDLFTEAVEIPMKRRVHFHAFMQEVQQGMHEARKKGVEDALQPVADSVAGQVRLLAFDEMQITDITDAMVVGRLFQKLFEQGVVIVTTSNRPPEGLYENGLNREVFLPFIDLLRERMTVIELESPTDYRQHRLQGAQVFFHPARKAEQAIARIWSDLTGGDRGHPMRLPVNGRTVEIPRFANGVGRATFWGLCARPLGPADFLAIAEACRVLILEDIPRLSAENYNEAKRFVTLIDALYEARVRLIASAADEPERLYIEGEGSFEFERTASRLREMQSADWANLEHHHHHH” as the sequence, how does the “soluble on expression in E. coli” value read?
The value was “not soluble”.
